The target of assay [1] is T1, cynomolgus macaque (Macaca fascicularis) CD39 (Macaca fascicularis, UniProt P49961 7-510 (human entry)).
T1 construct: On engineered CHO cells and on primary cyno B cells and monocytes; also called cyno CD39; cCD39
T1 chain: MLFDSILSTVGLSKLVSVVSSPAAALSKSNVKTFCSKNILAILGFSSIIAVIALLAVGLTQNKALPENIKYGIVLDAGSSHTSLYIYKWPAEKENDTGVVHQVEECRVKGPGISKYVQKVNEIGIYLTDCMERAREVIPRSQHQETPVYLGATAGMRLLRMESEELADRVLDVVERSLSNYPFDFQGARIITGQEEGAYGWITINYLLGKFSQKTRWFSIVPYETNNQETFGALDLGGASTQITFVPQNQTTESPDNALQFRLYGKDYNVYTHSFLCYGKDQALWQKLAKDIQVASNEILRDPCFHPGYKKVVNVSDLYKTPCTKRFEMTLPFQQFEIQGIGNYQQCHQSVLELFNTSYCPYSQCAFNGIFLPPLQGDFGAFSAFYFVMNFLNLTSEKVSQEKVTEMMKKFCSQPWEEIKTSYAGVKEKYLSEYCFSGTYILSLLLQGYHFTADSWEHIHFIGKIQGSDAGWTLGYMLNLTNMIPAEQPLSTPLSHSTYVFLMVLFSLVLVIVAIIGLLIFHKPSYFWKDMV
Description: flow cytometry, 100 nM IgG, MFI on CHO-cCD39 / MFI on parental CHO.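 Further: antibodies bound to the cells for 30 min in PBS, then bound IgG was revealed with a fluorescent goat anti-human IgG secondary antibody, 20 min on ice.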 On the technique in general: Flow cytometry measures light scatter and fluorescence of single cells or particles in a stream.

Assay [2] deals with T2, human CD39 (cellular) (human, UniProt P49961 1-510).
T2 construct: Same protein on engineered CHO cells and on cells that express it endogenously; also called hCD39; cellular CD39
T2 sequence: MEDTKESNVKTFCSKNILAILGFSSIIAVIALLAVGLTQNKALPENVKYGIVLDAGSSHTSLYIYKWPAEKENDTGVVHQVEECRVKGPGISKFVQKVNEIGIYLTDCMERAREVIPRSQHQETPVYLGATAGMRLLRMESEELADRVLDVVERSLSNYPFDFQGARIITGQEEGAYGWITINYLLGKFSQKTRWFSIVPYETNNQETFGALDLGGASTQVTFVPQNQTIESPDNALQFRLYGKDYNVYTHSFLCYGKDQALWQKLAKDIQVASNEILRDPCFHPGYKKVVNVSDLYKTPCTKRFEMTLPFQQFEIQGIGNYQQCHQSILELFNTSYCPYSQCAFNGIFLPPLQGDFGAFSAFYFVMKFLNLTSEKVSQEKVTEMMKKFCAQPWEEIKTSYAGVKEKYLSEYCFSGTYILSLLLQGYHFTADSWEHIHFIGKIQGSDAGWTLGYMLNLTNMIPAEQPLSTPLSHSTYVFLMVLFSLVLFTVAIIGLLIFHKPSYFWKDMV
Description: flow cytometry, 100 nM IgG, MFI on CHO-hCD39 / MFI on parental CHO.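 Further: cells exposed to IgG for 30 min on ice in PBS, bound antibody then revealed with a fluorescent goat anti-human IgG secondary (20 min, on ice).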

Assay [3] deals with T3, Chimera #4 (Homo sapiens (Human), UniProt P49961 1-510).
T3 construct: Expressed on CHO cells
T3 chain: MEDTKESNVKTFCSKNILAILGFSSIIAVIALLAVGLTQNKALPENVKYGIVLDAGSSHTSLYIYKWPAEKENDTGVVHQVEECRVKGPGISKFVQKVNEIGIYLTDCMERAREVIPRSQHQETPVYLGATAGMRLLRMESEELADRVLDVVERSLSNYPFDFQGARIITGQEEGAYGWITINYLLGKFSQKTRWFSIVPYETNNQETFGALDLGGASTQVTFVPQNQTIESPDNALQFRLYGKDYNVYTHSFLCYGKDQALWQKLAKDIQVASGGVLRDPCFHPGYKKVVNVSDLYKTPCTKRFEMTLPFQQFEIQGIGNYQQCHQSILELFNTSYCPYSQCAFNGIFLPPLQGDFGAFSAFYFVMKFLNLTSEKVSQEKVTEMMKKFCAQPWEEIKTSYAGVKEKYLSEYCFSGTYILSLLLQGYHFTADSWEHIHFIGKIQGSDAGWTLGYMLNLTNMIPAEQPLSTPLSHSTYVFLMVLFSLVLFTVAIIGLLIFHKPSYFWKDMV
Description: FACS on CHO cells, 15 ug/ml; human M1-S274 + mouse GGV + human L278-V510.

The target in assay [4] is T4, Chimera #2 (human, UniProt P49961 1-510).
T4 construct: Expressed on CHO cells; also called human-mouse Chimera #2
T4 chain: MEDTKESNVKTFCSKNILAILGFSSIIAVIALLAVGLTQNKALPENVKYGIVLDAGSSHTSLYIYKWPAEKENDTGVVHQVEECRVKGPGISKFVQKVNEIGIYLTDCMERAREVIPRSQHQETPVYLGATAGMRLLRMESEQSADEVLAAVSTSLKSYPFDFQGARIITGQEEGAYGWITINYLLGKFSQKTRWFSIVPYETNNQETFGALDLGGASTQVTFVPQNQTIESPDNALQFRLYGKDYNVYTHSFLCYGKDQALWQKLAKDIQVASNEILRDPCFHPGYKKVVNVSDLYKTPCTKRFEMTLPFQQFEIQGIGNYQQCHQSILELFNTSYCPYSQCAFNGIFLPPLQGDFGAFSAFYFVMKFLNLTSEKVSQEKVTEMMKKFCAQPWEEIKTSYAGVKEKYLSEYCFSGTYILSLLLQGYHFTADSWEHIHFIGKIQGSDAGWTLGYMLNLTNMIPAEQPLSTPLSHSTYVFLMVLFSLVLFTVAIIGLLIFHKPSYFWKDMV
Description: FACS on CHO cells; human M1-E142 + mouse Q143-S158 ([..]) + human Y159-V510.

Assay [5] addresses T5, Chimera #9 (Homo sapiens (Human), UniProt P49961 1-510).
T5 construct: Expressed on CHO cells
T5 chain: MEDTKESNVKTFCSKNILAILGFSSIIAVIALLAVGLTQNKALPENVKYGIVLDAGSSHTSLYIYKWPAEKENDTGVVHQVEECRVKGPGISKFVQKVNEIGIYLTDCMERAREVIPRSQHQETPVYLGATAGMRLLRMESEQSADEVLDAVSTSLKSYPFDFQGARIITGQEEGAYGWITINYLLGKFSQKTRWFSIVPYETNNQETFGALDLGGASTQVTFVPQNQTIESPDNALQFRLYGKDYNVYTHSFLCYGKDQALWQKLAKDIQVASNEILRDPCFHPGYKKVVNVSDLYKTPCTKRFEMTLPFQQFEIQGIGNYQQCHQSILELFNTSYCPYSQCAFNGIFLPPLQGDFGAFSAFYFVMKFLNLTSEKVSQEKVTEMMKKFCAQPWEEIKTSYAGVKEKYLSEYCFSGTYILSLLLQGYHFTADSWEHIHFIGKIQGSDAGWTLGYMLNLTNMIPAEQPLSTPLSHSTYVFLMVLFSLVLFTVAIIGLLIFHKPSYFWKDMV
Description: FACS on CHO cells, 15 ug/ml; Chimera 2 with human D150 ([..]).

The target in assay [6] is T6, Chimera #10 (Homo sapiens (Human), UniProt P49961 1-510).
T6 construct: Expressed on CHO cells
T6 chain: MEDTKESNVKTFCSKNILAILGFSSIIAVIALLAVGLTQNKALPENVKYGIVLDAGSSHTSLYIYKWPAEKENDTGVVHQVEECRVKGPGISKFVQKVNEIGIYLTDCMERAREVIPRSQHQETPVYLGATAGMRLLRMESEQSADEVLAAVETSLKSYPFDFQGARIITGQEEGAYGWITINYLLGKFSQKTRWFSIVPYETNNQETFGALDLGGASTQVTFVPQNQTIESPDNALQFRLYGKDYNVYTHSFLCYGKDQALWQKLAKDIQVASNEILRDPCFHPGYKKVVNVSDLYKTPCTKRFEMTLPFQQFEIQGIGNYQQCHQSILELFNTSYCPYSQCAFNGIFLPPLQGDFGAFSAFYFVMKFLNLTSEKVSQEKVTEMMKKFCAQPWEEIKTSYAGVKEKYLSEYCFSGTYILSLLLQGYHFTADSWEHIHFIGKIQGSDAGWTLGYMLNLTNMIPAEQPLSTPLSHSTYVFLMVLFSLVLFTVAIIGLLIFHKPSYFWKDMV
Description: FACS on CHO cells, 15 ug/ml; Chimera 2 with human E153 ([..]).

B1: 31896 (antibody, V domains shown)
VH: QVQLVQSGAEVKKPGSSVKVSCKASGGTFSKLAISWVRQAPGQGLEWMGGIGFGTANYAQKFQGRVTITADESASTAYMELSSLRSEDTAVYYCARGGAKYASTHGMDVWGQGTTVTVSS
VL: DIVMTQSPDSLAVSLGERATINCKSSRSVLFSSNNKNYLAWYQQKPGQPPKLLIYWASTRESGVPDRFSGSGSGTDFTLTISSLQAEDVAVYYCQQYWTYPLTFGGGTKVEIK
With B1, the “Cell Binding (FOB)” value in assay [1] came to 4540 fold over background; in assay [2], 1040 fold over background.

B2: 31915 (antibody, human IgG4 S228P, kappa, V domains shown)
VH: QVQLVQSGAEVKKPGSSVKVSCKASGGTFSSLPISWVRQAPGQGLEWMGGIGFGTANYAQKFQGRVTITADESTSTAYMELSSLRSEDTAVYYCARGGAKYASKWGMDVWGQGTTVTVSS
VL: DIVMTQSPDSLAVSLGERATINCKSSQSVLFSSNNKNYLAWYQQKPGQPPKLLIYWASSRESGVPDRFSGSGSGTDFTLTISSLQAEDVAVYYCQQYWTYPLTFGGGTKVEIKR
With B2, the “Cell Binding (FOB)” value in assay [1] was 4580 fold over background; in assay [2], 1090 fold over background.

B3: 31861 (antibody, human IgG4 S228P, kappa, V domains shown)
VH: QVQLVQSGAEVKKPGSSVKVSCKASGGTFGSYGISWVRQAPGQGLEWMGSIIPEFGIANYAQKFQGRVTITADESTSTAYMELSSLRSEDTAVYYCARESGTYRDHRLDVWGQGTMVTVSS
VL: EIVMTQSPATLSVSPGERATLSCRASQSVGSNLAWYQQKPGQAPRLLIYGASTRATGIPARFSGSGSGTEFTLTISSLQSEDFAVYYCQQYLLWPLTFGGGTKVEIKR
B3: the “Cell Binding (FOB)” value was 5480 fold over background in assay [1] and 1430 fold over background in assay [2].

B4: 31873 (antibody, human IgG4 S228P, kappa, V domains shown)
VH: QVQLVQSGAEVKKPGSSVKVSCKASGGTFSKYGISWVRQAPGQGLEWMGSIIPEFGIANYAQKFQGRVTITADESTSTAYMELSSLRSEDTAVYYCARESGGYRDHRLGVWGQGTMVTVSS
VL: EIVMTQSPATLSVSPGERATLSCRASQSVGSNLAWYQQKPGQAPRLLIYGASTRASGIPARFSGSGSGTEFTLTISSLQSEDFAVYYCQQYLLWPLTFGGGTKVEIKR
For the molecule B4, the figures for the “Cell Binding (FOB)” value in assay [1] and in assay [2] were 5080 fold over background and 1320 fold over background, respectively. The binding result in assay [3] is listed as “binds”.

B5: 31414 (antibody, human IgG4 S228P, kappa, V domains shown)
VH: QVQLVQSGAEVKKPGASVKVSCKASGYTFKSYEMHWVRQAPGQGLEWMGRINPSVGSTWYAQKFQGRVTMTRDTSTSTVYMELSSLRSEDTAVYYCARGKREGGTEYLRNWGQGTLVTVSS
VL: EIVLTQSPGTLSLSPGERATLSCRASQSVSSSYLAWYQQKPGQAPRLLIYGASSRATGIPDRFSGSGSGTDFTLTISRLEPEDFAVYYCQQYHSYITFGGGTKVEIKR
Take B5: the binding result in assay [4] is listed as “no binding (tested: 15 ug/ml)”; in assay [5] it was “binds”; in assay [3], “binds”; in assay [6] it was “binds”. Moreover, the “Cell Binding (FOB)” value is 3570 fold over background in assay [1] and 1240 fold over background in assay [2].

B6: 31415 (antibody, human IgG4 S228P, kappa, V domains shown)
VH: QVQLVQSGAEVKKPGASVKVSCKASGYTFTSYQMHWVRQAPGQGLEWMGRINPSGGSTWYAQKFQGRVTMTRDTSTSTVYMELSSLRSEDTAVYYCARGKREGGTEYLRSWGQGTLVTVSS
VL: EIVLTQSPGTLSLSPGERATLSCRASQSVSSSYLAWYQQKPGQAPRLLIYGASSRATGIPDRFSGSGSGTDFTLTISRLEPEDFAVYYCQQYHSYITFGGGTKVEIKR
As to B6, the entries for the “Cell Binding (FOB)” value in assay [1] and in assay [2] were 3360 fold over background and 1170 fold over background, respectively.

B7: 31891 (antibody, human IgG4 S228P, kappa, V domains shown)
VH: QVQLVQSGAEVKKPGASVKVSCKASGYIFKSYEMHWVRQAPGQGLEWMGRINPSVGSTWYAQKFQGRVTMTRDTSTSTVYMELSSLRSEDTAVYYCARGKREGGTEYLRVWGQGTLVTVSS
VL: EIVLTQSPGTLSLSPGERATLSCRASQSVSSSYLAWYQQKPGQAPRLLIYYASSRAYGIPDRFSGSGSGTDFTLTISRLEPEDFAVYYCQQYHNAITFGGGTKVEIKR
Take B7: the “Cell Binding (FOB)” value is 4650 fold over background in assay [1] and 1030 fold over background in assay [2].

B8: 31430 (antibody, human IgG4 S228P, kappa, V domains shown)
VH: QVQLVQSGAEVKKPGASVKVSCKASGYTFKSYEMHWVRQAPGQGLEWMGRINPSGGSTWYAQKFQGRVTMTRDTSTSTVYMELSSLRSEDTAVYYCARGKREGGTEYLRHWGQGTLVTVSS
VL: EIVLTQSPGTLSLSPGERATLSCEASQSVSYSYLAWYQQKPGQAPRLLIYGASSRANGIPDRFSGSGSGTDFTLTISRLEPEDFAVYYCQQYHSALTFGGGTKVEIKR
B8: the “Cell Binding (FOB)” value is 3570 fold over background in assay [1] and 1220 fold over background in assay [2].
